Laboratory results reported in article PMC9927813, “Discovery of DNA aptamers targeting SARS-CoV-2 nucleocapsid protein and protein-binding epitopes for label-free COVID-19 diagnostics”.

Assays:
[1] = target: T1, SARS-CoV-2 nucleocapsid (N) protein, wild type (SARS-CoV-2 (wild type), UniProt P0DTC9 1-419); assay: BLI; BLI ([…], DPBS + 0.5 mM MgCl2 + 1 mM CaCl2, pH 7.4; […] (PBST); details: protein: commercial; tags: His; chain copies: 2
[2] = target: T1, SARS-CoV-2 nucleocapsid (N) protein, …; assay: BLI; aptamer on streptavidin sensor, PBST; BLI ([…], DPBS + 0.5 mM MgCl2 + 1 mM CaCl2, pH 7.4; […] (PBST); details: protein: commercial; tags: His; chain copies: 2
[3] = target: SARS-CoV-2 S1 protein (SARS-CoV-2, UniProt P0DTC2 13-685); assay: BLI; BLI ([…], DPBS + 0.5 mM MgCl2 + 1 mM CaCl2, pH 7.4; […] (PBST); details: protein: commercial
[4] = target: T1, SARS-CoV-2 nucleocapsid (N) protein, …; assay: BLI; N protein on Ni-NTA sensor; BLI ([…], DPBS + 0.5 mM MgCl2 + 1 mM CaCl2, pH 7.4; […] (PBST); details: protein: commercial; tags: His; chain copies: 2
[5] = target: SARS-CoV-2 N protein, in-house (SARS-CoV-2 (wild type), UniProt P0DTC9 1-419); assay: BLI; aptamer on streptavidin sensor, PBST; BLI ([…], DPBS + 0.5 mM MgCl2 + 1 mM CaCl2, pH 7.4; […] (PBST); details: protein: recombinant; chain copies: 2

B1: A48 (ssDNA)
DNA: GCTGGATGTCGCTTACGACAATATTCCTTAGGGGCACCGCTACATTGACACATCCAGC
For B1, the Kd [1] was 6.46 ± 1.04 nM.

B2: NSP1 (ssDNA)
DNA: CTCCTCTGACTGTAACCACGGCGCAAGCCGGGGTGTACGTGTTATACGTGCGTGTATCGAGCATAGGTAGTCCAGAAGCC
B2 showed a Kd [1] of 7.86 ± 1.17 nM.

B3: tNSP12 (ssDNA)
DNA: TGTAACCACGTGGTTCGCCCAGTTCCGTTCAATACACTCAACCCTGCACGGCATAGGTA
Work on B3 yielded a Kd [1] of 6.05 ± 2.41 nM.

B4: biotinylated tNSP2 (ssDNA)
DNA: CTGACTGTAACCACGTATTGCGTTCCAGTCCCTATGACCAACGTCACAATAAGTCGCATAGGTA
B4 was tested, and the Kd [2] was 4.51 ± 1.5 nM and the binding result [3] was “no binding”.

B5: tNSP2 (ssDNA)
DNA: CTGACTGTAACCACGTATTGCGTTCCAGTCCCTATGACCAACGTCACAATAAGTCGCATAGGTA
Binder B5 has a Kd [4] of 3.04 ± 1.53 nM.

B6: NSP3 (ssDNA)
DNA: CTCCTCTGACTGTAACCACGCAGCGTCACGTGTTGTTCCCCATTGTACTGATTCGTCGTGGCATAGGTAGTCCAGAAGCC
With B6 the Kd [1] was 8.6 ± 1.06 nM.

B7: tNSP9 (ssDNA)
DNA: TGTAACCACGTGCTAGATTACGTAACTGGTTGCTACGGGTTTCATCCTCGGCATAGGTA
In the case of B7, the Kd [1] is reported as 22.2 ± 1.87 nM.

With CAGCGTCACGTGTTGTTCCCCATTGTACTGATTCGTCGTGGCAT (ssDNA) [biotinylated tNSP3] the Kd [5] was 7.52 ± 0.5 nM, the Kd [2] was 2.91 ± 1.02 nM and the binding result [3] was “no binding”.

For CAGCGTCACGTGTTGTTCCCCATTGTACTGATTCGTCGTGGCAT (ssDNA) [tNSP3], the Kd [4] was 5.77 ± 1.17 nM.

TAACCACGGCGCAAGCCGGGGTGTACGTGTTATACGTGCGTGTATCGAG (ssDNA) [biotinylated tNSP1] was tested, and the Kd [2] was 4.83 ± 1.09 nM and the binding result [3] was “no binding”.

Binder TAACCACGGCGCAAGCCGGGGTGTACGTGTTATACGTGCGTGTATCGAG (ssDNA) [tNSP1] has a Kd [4] of 4.53 ± 0.96 nM.

ATTCATGCGCCAATAGTGGTTTGGAAATGTCTCCCCATACGCATAG (ssDNA) [tNSP5] showed a Kd [1] of 12.6 ± 2.56 nM.

B8: NSP2 (ssDNA)
DNA: CTCCTCTGACTGTAACCACGTATTGCGTTCCAGTCCCTATGACCAACGTCACAATAAGTCGCATAGGTAGTCCAGAAGCC
B8 showed a Kd [1] of 4.38 ± 1.21 nM.

Binder CTTATGCACCAGGGGCCCGGTTCGGGCAGGCGCAAACACGGCATAGG (ssDNA) [tNSP10] has a Kd [1] of 8.6 ± 1.2 nM.
